Results as given in IntAct's records for PubMed 21900546.

B1: Neutrophil cytosol factor 2 (Homo sapiens), P19878 (parent)
chain: MSLVEAISLWNEGVLAADKKDWKGALDAFSAVQDPHSRICFNIGCMYTILKNMTEAEKAFTRSINRDKHLAVAYFQRGMLYYQTEKYDLAIKDLKEALIQLRGNQLIDYKILGLQFKLFACEVLYNIAFMYAKKEEWKKAEEQLALATSMKSEPRHSKIDKAMECVWKQKLYEPVVIPVGKLFRPNERQVAQLAKKDYLGKATVVASVVDQDSFSGFAPLQPQAAEPPPRPKTPEIFRALEGEAHRVLFGFVPETKEELQVMPGNIVFVLKKGNDNWATVMFNGQKGLVPCNYLEPVELRIHPQQQPQEESSPQSDIPAPPSSKAPGRPQLSPGQKQKEEPKEVKLSVPMPYTLKVHYKYTVVMKTQPGLPYSQVRDMVSKKLELRLEHTKLSYRPRDSNELVPLSEDSMKDAWGQVKNYCLTLWCENTVGDQGFPDEPKESEKADANNQTTEPQLKKGSQVEALFSYEATQPEDLEFQEGDIILVLSKVNEEWLEGECKGKVGIFPKVFVEDCATTDLESTRREV

Variants of: B1
Conditions: with rac2_human RAC2, P15153

Variant	effect of a mutation on the interaction
R38Q	decreasing interaction strength
